US12310324B2, “Compositions and methods for minimizing nornicotine synthesis in tobacco” (North Carolina State University, priority 2010, dated 2025)

Assays:
[1] = test system: CYP82E10 nicotine demethylase; test: Nicotine demethylase assay, yeast microsomal membranes with [14C]-nicotine, CYP82E10 and variants; type: biochemical, tobacco; details: at the 25 μM substrate level
[2] = test system: CYP82E10 nicotine demethylase; test: as above; type: biochemical, tobacco
Source text: To determine whether CYP82E10 functions as a nicotine demethylase gene, its cDNA was cloned into the yeast expression vector pYeDP60 and transformed into yeast strain W(R). Strain W(R) is a yeast cell line that was engineered to overexpress the yeast NADPH-dependent P450 reductase, an enzyme that serves as the direct electron donor to P450s; this system greatly enhances the detection of foreign P450 enzyme activities that are expressed in yeast (Pompon et al., 1995). Nicotine demethylase assays were conducted by incubating yeast microsomal membrane preparations with [^14C]-nicotine, and resolving the products by thin layer chromatography as described in Siminszky et al. (2005).
The nucleotide and amino acid residues mutated in these plants are also highlighted in FIG. 1. Although no truncation mutations were observed among these individuals, in several cases, mutations were identified that altered an amino acid residue within a highly conserved region of the enzyme. To determine the effects of a particular mutation on CYP82E10 enzyme activity, site-directed mutagenesis was used to introduce the specific mutations corresponding to seven of the nine mutations shown in Table 2 into the CYP82E10 cDNA within the pYeDP60 yeast expression vector. Microsomal preparations from yeast strains expressing each of the seven CYP82E10 variants were assayed in vitro for nicotine demethylase activity using both non-saturating (2.45 μM) and saturating (50 μM) concentrations of [^14C]-nicotine.

[3] = test system: CYP82E10 nicotine demethylase; type: cell-based, tobacco; details: cultures shaken overnight with 55 μM [14C]-nicotine, methanol extract, TLC
Protocol: Nicotine demethylase activities of wild type and 1041 mutant CYP82E10-expressing yeast cells was also assayed in vivo.

[4] = biological target: CYP82E4 nicotine demethylase (Nicotiana tabacum, UniProt Q38Q87, V376M)
Sequence of CYP82E4 nicotine demethylase (Q38Q87 whole entry V376M): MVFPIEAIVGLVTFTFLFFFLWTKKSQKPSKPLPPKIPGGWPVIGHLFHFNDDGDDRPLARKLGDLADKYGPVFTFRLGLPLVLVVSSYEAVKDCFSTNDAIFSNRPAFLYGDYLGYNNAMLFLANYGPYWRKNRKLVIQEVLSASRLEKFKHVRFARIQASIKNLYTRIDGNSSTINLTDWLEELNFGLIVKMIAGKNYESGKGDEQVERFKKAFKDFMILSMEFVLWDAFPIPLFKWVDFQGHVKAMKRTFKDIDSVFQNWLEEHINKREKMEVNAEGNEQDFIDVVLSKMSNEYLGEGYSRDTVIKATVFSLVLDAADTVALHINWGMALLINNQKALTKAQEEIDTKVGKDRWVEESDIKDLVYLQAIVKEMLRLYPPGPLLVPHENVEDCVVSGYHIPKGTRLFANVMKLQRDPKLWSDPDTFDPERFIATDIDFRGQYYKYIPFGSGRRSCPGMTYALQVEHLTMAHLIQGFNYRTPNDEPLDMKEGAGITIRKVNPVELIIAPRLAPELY

[5] = counts per minute of [14C]-nornicotine/mg microsomal protein, ± SD of two technical replications

B1: CYP82E10: wild type root-specific tobacco nicotine demethylase (cytochrome P450) expressed in yeast (protein, listed as Nicotiana tabacum)
chain: MVSPVEAIVGLVTLTLLFYFIRTKKSQKPSKPLPPKIPGGWPVIGHLFYFDDDSDDRPLARKLGDLADKYGPVFTFRLGLPLVLVVSSYEAIKDCFSTNDAIFSNRPAFLYGEYLGYNNAMLFLTKYGPYWRKNRKLVIQEVLCASRLEKLKHVRFGEIQTSIKNLYTRIDGNSSTINLTDWLEELNFGLIVKMIAGKNYESGKGDEQVERFRKAFKDFIILSMEFVLWDAFPIPLFKWVDFQGHVKAMKRTFKDIDSVFQNWLEEHVKKKEKMEVNAEGNEQDFIDVVLSKMSNEYLDEGYSRDTVIKATVFSLVLDAADTVALHMNWGMALLINNQHALKKAQEEIDKKVGKDRWVEESDIKDLVYLQTIVKEVLRLYPPGPLLVPHENVEDCVVSGYHIPKGTRLFANVMKLQRDPKLWSNPDKFDPERFFAADIDFRGQHYEFIPFGSGRRSCPGMTYAMQVEHLTIAHLIQGFNYKTPNDEPLDMKEGAGLTIRKVNPIEVVITPRLTPELY
[1]
  rate of [14C]-nornicotine synthesis relative to preparations containing CYP82E4v2: nearly three times greater
[2]; [5]
  CPM nornicotine at 2.45 μM [14C]-nicotine substrate: 2,296 ± 99 ^ CPM
  CPM nornicotine at 50.0 μM [14C]-nicotine substrate: 15,253 ± 465 CPM
[2]; yeast microsomes, [14C]-nicotine
  nicotine demethylase (enzyme) activity, result in words: very robust nicotine demethylase activity
[3]
  nornicotine detected in extracts of yeast: could be detected

B2: CYP82E4 V376M: CYP82E4 variant with methionine for valine at position 376 (protein, listed as Nicotiana tabacum)
chain: MLSPIEAIVGLVTFTFLFFFLWTKKSQKPSKPLPPKIPGGWPVIGHLFHFNDDGDDRPLARKLGDLADKYGPVFTFRLGLPLVLVVSSYEAVKDCFSTNDAIFSNRPAFLYGDYLGYNNAMLFLANYGPYWRKNRKLVIQEVLSASRLEKFKHVRFARIQASIKNLYTRIDGNSSTINLTDWLEELNFGLIVKMIAGKNYESGKGDEQVERFKKAFKDFMILSMEFVLWDAFPIPLFKWVDFQGHVKAMKRTFKDIDSVFQNWLEEHINKREKMEVNAEGNEQDFIDVVLSKMSNEYLGEGYSRDTVIKATVFSLVLDAADTVALHINWGMALLINNQKALTKAQEEIDTKVGKDRWVEESDIKDLVYLQAIVKEMLRLYPPGPLLVPHENVEDCVVSGYHIPKGTRLFANVMKLQRDPKLWSDPDTFDPERFIATDIDFRGQYYKYIPFGSGRRSCPGMTYALQVEHLTMAHLIQGFNYRTPNDEPLDMKEGAGITIRKVNPVELIIAPRLAPELY
modifications: CYP82E4 V376M Variant
[4]
  nicotine demethylase activity relative to the wild-type CYP82E4 polypeptide: about 50%
